Data on two molecules can be found in publication PMC9263169, “Aptamer-antibody hybrid ELONA that uses hybridization chain reaction to detect a urinary biomarker EN2 for bladder and prostate cancer”.

Series [1] has as its target T1, EN2 (Engrailed-2), recombinant (human, UniProt P19622 1-333).
T1 sequence: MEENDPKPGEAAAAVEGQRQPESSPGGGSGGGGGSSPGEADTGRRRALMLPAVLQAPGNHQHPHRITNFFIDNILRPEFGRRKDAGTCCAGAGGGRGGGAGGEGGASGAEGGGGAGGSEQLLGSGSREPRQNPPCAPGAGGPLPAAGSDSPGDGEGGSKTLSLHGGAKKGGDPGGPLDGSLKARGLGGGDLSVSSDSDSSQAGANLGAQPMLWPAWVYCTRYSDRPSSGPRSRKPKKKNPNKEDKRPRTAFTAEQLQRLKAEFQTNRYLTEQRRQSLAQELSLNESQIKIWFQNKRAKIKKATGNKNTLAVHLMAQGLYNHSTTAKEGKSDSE
The series is described as follows: plate fluorescence binding (EN2 immobilized); signal saturates at 250 nM EN2; 20 mM Tris-HCl, 50 mM NaCl, 5 mM KCl, 5 mM MgCl2, pH 8.0, room temperature, 1 h. The conditions noted are these: protein: recombinant; tags: N-terminal His (pET28a); label: 5'-FAM; hairpin.

Series [2] deals with T1, EN2 (Engrailed-2), recombinant. Nature of the series: magnetic-bead fluorescence assay (His-EN2 on NTA beads); 5 mM Mg2+; 20 mM Tris-HCl, 50 mM NaCl, 5 mM KCl, 5 mM MgCl2, pH 8.0, room temperature, 1 h. As to conditions: protein: recombinant; tags: N-terminal His (pET28a); label: 5'-FAM.

In the case of CGCATAATTACCTCCAGAAGGAGAGGTAATTATGCG (structured_DNA) [EN2 motif hairpin DNA], the binding result in series [1] is reported as “binds”.

AGCGGATCCGAGGTGAGGAGCGCCGGTGAGACTCCTTCATTCTATCTGCT (structured_DNA) [EBA (trimmed H90)]: the Kd in series [2] was found to be 8.26 nM.
